From US20210206856A1 (PANDION OPERATIONS, published 2021)
Numbering of substitutions follows the chain as printed.

T1: human MAdCAM expressed on cells (human, UniProt Q13477 19-382)
T1 construct: whole, on cells; also called MADCAM1
T1 sequence (looked up): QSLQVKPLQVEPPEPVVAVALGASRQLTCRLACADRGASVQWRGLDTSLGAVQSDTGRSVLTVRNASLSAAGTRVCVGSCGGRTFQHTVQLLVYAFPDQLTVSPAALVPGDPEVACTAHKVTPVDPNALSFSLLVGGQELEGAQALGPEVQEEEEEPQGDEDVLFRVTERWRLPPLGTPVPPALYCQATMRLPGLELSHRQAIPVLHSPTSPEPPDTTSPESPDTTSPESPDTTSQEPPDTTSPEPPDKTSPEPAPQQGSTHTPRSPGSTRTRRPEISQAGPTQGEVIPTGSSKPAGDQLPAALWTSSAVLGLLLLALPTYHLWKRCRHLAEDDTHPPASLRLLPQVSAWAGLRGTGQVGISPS

T2: mouse MAdCAM expressed on cells (mouse, UniProt Q61826 22-405)
T2 construct: whole, on cells
T2 sequence (looked up): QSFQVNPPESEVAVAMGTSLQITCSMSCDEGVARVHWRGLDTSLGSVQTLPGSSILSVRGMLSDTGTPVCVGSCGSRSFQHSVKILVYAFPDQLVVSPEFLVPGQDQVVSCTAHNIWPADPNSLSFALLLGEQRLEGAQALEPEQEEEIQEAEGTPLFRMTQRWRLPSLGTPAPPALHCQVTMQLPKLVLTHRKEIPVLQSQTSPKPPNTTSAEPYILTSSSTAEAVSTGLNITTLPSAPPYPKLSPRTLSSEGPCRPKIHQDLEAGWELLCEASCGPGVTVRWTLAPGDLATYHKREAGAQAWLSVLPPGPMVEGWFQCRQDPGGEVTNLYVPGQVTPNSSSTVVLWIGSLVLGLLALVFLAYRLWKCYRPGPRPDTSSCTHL

B1: MAdCAM Antibody Table 2 Clone 1 (antibody, human IgG1, V domains shown)
VH: EVQLLESGGGLVQPGGSLRLSCAASGFTFSSYGMHWVRQAPGKGLEWVAVISDDGSDKYYADSVKGRFTISRDNSKNTLYLQMNSLRAEDTAVYYCTTSKYYYYYGMDVWGQGTTVTVSS
VL: DIQMTQSPSSLSASVGDRVTITCQASQDISKSLNWYQQKPGKAPKLLIYAASSLQSGVPSRFSGSGSGTDFTLTISSLQPEDFATYYCQQGYSTPLTFGGGTKVEIK
B2: MAdCAM Antibody Table 2 Clone 7 (antibody, human IgG1, V domains shown)
VH: EVQLLESGGGLVQPGGSLRLSCAASGFTFSDYQMSWVRQAPGKGLEWVAIISHADGGFKDYADSVKGRFTISRDNSKNTLYLQMNSLRAEDTAVYYCAKPYSSGWSAVYYFDYWGQGTLVTVSS
VL: DIQMTQSPSSLSASVGDRVTITCRASRGITNDLGWYQQKPGKAPKLLIYAASTLQSGVPSRFSGSGSGTDFTLTISSLQPEDFATYYCQQAYSFPWTFGQGTKVEIK
B3: MAdCAM Antibody Table 2 Clone 8 (antibody, human IgG1, V domains shown)
VH: QVQLVQSGAEVKKPGASVKVSCKASGYTFTGYHIHWVRQAPGQGLEWMGIINPSGGSTIYAQKFQGRVTMTRDTSTSTVYMELSSLRSEDTAVYYCAKDWSSWYLGPFDYWGQGTLVTVSS
VL: B1 VL with Q24R, D28N, K31S, G91S, S93T, L96Y, G100Q
B4: MAdCAM Antibody Table 2 Clone 10 (antibody, human IgG1, V domains shown)
VH: EVQLLESGGGLVQPGGSLRLSCAASGFMFGDYAMHWVRQAPGKGLEWVSAISGSGGSTYYADSVKGRFTISRDNSKNTLYLQMNSLRAEDTAVYYCAKDLVVAGIWYFDLWGRGTLVTVSS
VL: DIQMTQSPSSLSASVGDRVTITCRASQGISNNLNWYQQKPGKAPKLLIYDASSLESGVPSRFSGSGSGTDFTLTISSLQPEDFATYYCQQTHSFPSTFGQGTKLEIK
B5: MAdCAM Antibody Table 2 Clone 11 (antibody, human IgG1, V domains shown)
VH: EVQLLESGGGLVQPGGSLRLSCAASGFTFSDYYMNWVRQAPGKGLEWVSVIGESGGSTYYADSVKGRFTISRDNSKNTLYLQMNSLRAEDTAVYYCAADPVSRWPKHGGGDYWGQGTLVTVSS
VL: B2 VL with R27Q, T30S, N31S, D32S, G34A, A91S, F94T
B6: MAdCAM Antibody Table 2 Clone 12 (antibody, human IgG1, V domains shown)
VH: QVQLVQSGAEVKKPGASVKVSCKASGYTLTTWYMYWVRQAPGQGLEWMGWINPNRGATNYAQKFQGRVTMTRDTSTSTVYMELSSLRSEDTAVYYCAKGDLWGAMDVWGQGTLVTVSS
VL: B1 VL with Q24R, Q27D, D28N, S30G, K31S, S32W, N34A, L96P, G100Q
B7: MAdCAM Antibody Table 2 Clone 33 (antibody, human IgG1, V domains shown)
VH: B6 VH with L113T
VL: B1 VL with Q24R, Q27D, D28N, S30G, K31S, S32W, N34A, L96P, G100Q
B8: MAdCAM Antibody Table 2 Clone 13 (antibody, human IgG1, V domains shown)
VH: QVQLVQSGAEVKKPGASVKVSCKASGYTFTTYYMHWVRQAPGQGLEWMGGFDPEDGETIYAQKFQGRVTMTRDTSTSTVYMELSSLRSEDTAVYYCARHAVAGAVGAGYYYYGMDVWGQGTMVTVSS
VL: B2 VL with R27E, G28S, T30S, D32W, G34A, A91S, F94V, W96F, Q100P, E105D
B9: MAdCAM Antibody Table 2 Clone 15 (antibody, human IgG1, V domains shown)
VH: QVQLVQSGAEVKKPGASVKVSCKASGYTFTGYYMHWVRQAPGQGLEWMGWIGPNSGDTNYAQKFQGRVTMTRDTSTSTVYMELSSLRSEDTAVYYCARDLDHNWYFDLWGRGTLVTVSS
VL: DIVMTQSPLSLPVTPGEPASISCRSSQSLLHSNGYNYLDWYLQKPGQSPQLLIYSSSNRAPGVPDRFSGSGSGTDFTLKISRVEAEDVGVYYCMQALHIPLTFGGGTKVEIK
B10: MAdCAM Antibody Table 2 Clone 16 (antibody, human IgG1, V domains shown)
VH: EVQLLESGGGLVQPGGSLRLSCAASGFTFDDYAMHWVRQAPGKGLEWVSYIDASGTTIYYADSVKGRFTISRDNSKNTLYLQMNSLRAEDTAVYYCAKDQAAAGYWYFDLWGRGTLVTVSS
VL: B1 VL with K31N, S32Y, A50K, S53T, Q55E, G91S, L96I, G100Q, K103R, V104L
B11: MAdCAM Antibody Table 2 Clone 18 (antibody, human IgG1, V domains shown)
VH: QVQLVQSGAEVKKPGSSVKVSCKASGYTFTNYYMHWVRQAPGQGLEWMGGIIPIVDRVKYAQKFQGRVTITADESTSTAYMELSSLRSEDTAVYYCAKGRYTVNYYYGMDVWGQGTTVTVSS
VL: DIQMTQSPSSLSASVGDRVTITCQANQDISNYLNWYQQKPGKAPKLLIYRASKLEAGVPSRFSGSGSGTDFTLTISSLQPEDFATYYCQQSSEIPYSFGQGTKLEIK
B12: MAdCAM Antibody Table 2 Clone 19 (antibody, human IgG1, V domains shown)
VH: EVQLLESGGGLVQPGGSLRLSCAASGFTFEDYAMHWVRQAPGKGLEWVSYLNSDGGSTSYADSVKGRFTISRDNSKNTLYLQMNSLRAEDTAVYYCAKDYCTNGVCAFDYWGQGTLVTVSS
VL: DIQMTQSPSSLSASVGDRVTITCRASQSISTYLNWYQQKPGKAPKLLIYDASNLETGVPSRFSGSGSGTDFTLTISSLQPEDFATYYCQQSYTIPITFGQGTRLEIK
B13: MAdCAM Antibody Table 2 Clone 21 (antibody, human IgG1, V domains shown)
VH: EVQLVESGGGLVKPGGSLRLSCAASGFTFSSYWMSWVRQAPGKGLEWVSYISGDSGYTNYAAPVKGRFTISRDDSKNTLYLQMNSLKTEDTAVYYCARANSSGWYDWYFDLWGRGTLVTVSS
VL: not shown
B14: MAdCAM Antibody Table 2 Clone 25 (antibody, human IgG1, V domains shown)
VH: EVQLLESGGGLVQPGGSLRLSCAASGFTFSNAWMSWVRQAPGKGLEWVSTIVGNGGATYYADSVKGRFTISRDNSKNTLYLQMNSLRAEDTAVYYCARDNPLRWQGMDVWGQGTLVTVSS
VL: B1 VL with Q24R, K31N, S32Y, G91S, T94I, L96P, G100P, E105D
B15: MAdCAM Antibody Table 2 Clone 26 (antibody, V domains shown)
VH: EVQLLESGGGLVQPGGSLRLSCAASGFTFSSYAMSWVRQAPGKGLEWVSYISSSSTYTNYADSVKGRFTISRDNSKNTLYLQMNSLRAEDTAVYYCARANSSSWYDWYFDLWGQGTLVTVSS
VL: not shown
B16: MAdCAM Antibody Table 2 Clone 30 (antibody, human IgG1, V domains shown)
VH: EVQLLESGGGLVQPGGSLRLSCAASGFTFSSYAMHWVRQAPGKGLEWVSGISGSGGSAYYADSVKGRFTISRDNSKNTLYLQMNSLRAEDTAVYYCATSQAPVDYYYYGMDVWGQGTTVTVSS
VL: B12 VL with T31S, Y32W, N34A, D50A, E55Q, T56R, T93S, R103K, L104V
B17: MAdCAM Antibody Table 2 Clone 34 (antibody, human IgG1, V domains shown)
VH: QVQLVQSGAEVKKPGASVKVSCKASGYTFTGYYIHWVRQAPGQGLEWMGWMNPNSGNTGYAQKFQGRVTMTRDTSTSTVYMELSSLRSEDTAVYYCARDPGFLGYCSGGSCYDGWFDPWGQGTLVTVSS
VL: B12 VL with T31S, N34H, D50A, N53S, E55Q, T56S, I94A, I96Y, R103K
B18: MAdCAM Antibody Table 2 Clone 27 (antibody, V domains shown)
VH: B15 VH with A33Q
VL: not shown
B19: MAdCAM Antibody Table 2 Clone 35 (antibody, human IgG1, V domains shown)
VH: B17 VH with C106S, C111S
VL: B12 VL with T31S, N34H, D50A, N53S, E55Q, T56S, I94A, I96Y, R103K
B20: MAdCAM Antibody Table 2 Clone 32 (antibody, human IgG1, V domains shown)
VH: B6 VH
VL: B1 VL with Q24R, Q27D, D28N, S30G, K31S, S32W, N34A, L96P, G100Q
B21: MAdCAM Antibody Table 2 Clone 9 (antibody, human IgG1, V domains shown)
VH: QVQLVQSGAEVKKPGASVKVSCKASGYTFTSYYMHWVRQAPGQGLEWMGIINHSGGSTSYAQKFQGRVTMTRDTSTSTVYMELSSLRSEDTAVYYCARPYSGWYFAFDIWGQGTLVTVSS
VL: not shown

Biological target: T1, human MAdCAM expressed on cells
Experiment: cell binding

Binder | binding result
B1 | binds
B2 | binds
B3 | binds
B4 | binds
B5 | binds
B6 | binds
B7 | binds
B8 | binds
B9 | binds
B10 | binds
B11 | binds
B12 | binds
B13 | binds
B14 | binds
B15 | binds
B16 | binds
B17 | binds

Biological target: T2, mouse MAdCAM expressed on cells
Experiment: cell binding

Binder | binding result
B1 | binds
B2 | binds
B3 | binds
B4 | binds
B5 | binds
B6 | no binding
B7 | no binding
B8 | no binding
B9 | no binding
B10 | no binding
B11 | no binding
B12 | no binding
B13 | no binding
B14 | no binding
B15 | no binding
B18 | no binding
B16 | binds
B17 | no binding
B19 | no binding
B20 | no binding
B21 | no binding
